T1: Human DLL3 expressed on cells (HEK293T-hDLL3, NCI-H82, SHP-77, MC38-hDLL3) (human, UniProt Q9NYJ7 27-618)
T1 construct: also called DLL3 endogenously expressed on human cells
T1 sequence: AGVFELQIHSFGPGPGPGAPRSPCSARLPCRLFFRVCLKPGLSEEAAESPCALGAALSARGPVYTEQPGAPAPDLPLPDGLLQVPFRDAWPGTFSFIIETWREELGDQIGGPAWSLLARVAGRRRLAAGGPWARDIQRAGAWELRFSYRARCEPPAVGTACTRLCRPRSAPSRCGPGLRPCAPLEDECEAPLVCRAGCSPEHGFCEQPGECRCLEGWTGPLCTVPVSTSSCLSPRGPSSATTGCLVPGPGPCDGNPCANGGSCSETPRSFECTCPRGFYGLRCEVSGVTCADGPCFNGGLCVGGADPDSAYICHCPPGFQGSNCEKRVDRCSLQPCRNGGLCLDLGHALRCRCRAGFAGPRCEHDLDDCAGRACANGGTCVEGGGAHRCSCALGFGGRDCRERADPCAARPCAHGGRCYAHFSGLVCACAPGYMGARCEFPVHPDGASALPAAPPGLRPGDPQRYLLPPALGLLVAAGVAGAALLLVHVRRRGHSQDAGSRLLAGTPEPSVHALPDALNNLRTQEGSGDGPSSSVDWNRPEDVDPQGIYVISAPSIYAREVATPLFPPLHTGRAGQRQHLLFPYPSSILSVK

T2: hDLL3 ECD-Avi-Fckih (biotinylated extracellular domain of human DLL3, residues 27 to 466, Avi-tag, 3C site, … (human, UniProt Q9NYJ7 27-466, biotinylated at the Avi-tag))
T2 construct: The make-up of the second Fc chain of the knob-into-hole pair is not described; also called bio-DLL3; recombinant human DLL3; not shown: Avi-tag, 3C protease recognition site and Fc knob into hole
T2 sequence: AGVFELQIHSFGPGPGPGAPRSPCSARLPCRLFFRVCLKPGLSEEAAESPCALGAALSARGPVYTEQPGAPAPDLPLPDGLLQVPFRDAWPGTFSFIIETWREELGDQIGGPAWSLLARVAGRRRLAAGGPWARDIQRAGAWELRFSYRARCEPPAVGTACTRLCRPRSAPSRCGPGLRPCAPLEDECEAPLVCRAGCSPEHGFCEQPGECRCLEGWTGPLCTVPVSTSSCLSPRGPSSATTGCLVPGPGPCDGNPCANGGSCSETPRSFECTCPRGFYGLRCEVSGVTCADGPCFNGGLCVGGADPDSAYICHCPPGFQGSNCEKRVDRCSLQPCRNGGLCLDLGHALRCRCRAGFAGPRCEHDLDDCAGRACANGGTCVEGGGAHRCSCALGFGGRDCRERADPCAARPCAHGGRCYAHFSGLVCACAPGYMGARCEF


Key:
[1] = molecular target: Human DLL3 expressed on cells (HEK293T-hDLL3, NCI-H82, SHP-77, MC38-hDLL3) (human) (UniProt Q9NYJ7); test: flow cytometry titration on HEK293T-hDLL3 cells, without HSA
[2] = molecular target: Human DLL3 expressed on cells (HEK293T-hDLL3, NCI-H82, SHP-77, MC38-hDLL3) (human) (UniProt Q9NYJ7); test: flow cytometry titration on HEK293T-hDLL3 cells, with HSA
[3] = molecular target: T1, Human DLL3 expressed on cells …; test: flow cytometry titration on NCI-H82 cells (endogenous DLL3), with 10 uM HSA
Description: (§1) Furthermore, cell binding titration assays were also performed with selected two domain (2D) designed ankyrin repeat proteins to determine binding to human cells expressing DLL3 endogenously, in absence and presence of human serum albumin. For this purpose, NCI-H82 cells were used, a human lung carcinoma cell line which endogenously expresses DLL3 on the surface. […] A non-binding DARPin comprising SEQ ID NO: 22 was used as a negative control.
(§2) In brief, 1×10⁵ cells/well were resuspended in 100 μl DARPin dilution (500 nM, 1:5 serial diluted in PBS, 2% FBS) and incubated for 1 h at 4° C. This step was performed in absence and presence of 10 μM Human Serum Albumine (CSL Behring #150570). Cells were washed twice with PBS, 2% FBS and resuspended in 100 μl anti-DARPin antibody (rabbit anti-DARPin 1.4.8) and LIVE/DEAD cell stain (1:1000, Biolegend #423106). After incubation and washing, cells were incubated with detection antibody for 30 minutes (Goat […] IgG (H+L), AF647, Thermo Fisher #21445). Cells were fixed (Paraformaldehyde Solution, TCL119, LucernaChem) and acquired at Attune N×T (Thermo Life Technologies). Raw fcs files were exported and analyzed using FlowJo software. MFI values of live AF647-positive cells were exported from FlowJo and plotted using GraphPad Prism software.

[4] = molecular target: T3, human serum albumin (human, UniProt P02768 25-609); test: SPR (Bruker Sierra SPR-32), HSA on chip, DARPin as analyte, 1:1 Langmuir fit
T3 construct: also called HSA
Description: (§3) Similarly, a SPR assay was used to determine the binding kinetics to human or mouse serum albumin. […] All analytes (3-fold dilution ranging from 1000-12.35 nM) were injected in succession for 240 s (25 μl/min) and dissociation was recorded for 600 s (25 μl/min).

[5] = molecular target: T1, Human DLL3 expressed on cells …; test: flow cytometry titration on HEK293T-hDLL3 cells, with HSA
Description: (§4) Cell binding titration assays were performed for selected His-tagged single domain (1 D) and two domain (2D) designed ankyrin repeat proteins to determine binding to human DLL3 expressed on HEK293T-huDLL3 cells in absence and presence of human serum albumin. […] HEK293T-hDLL3 cells are HEK293T cells that were stably transfected to express human DLL3 on their surface.
as §2, with “diluted)” for “diluted in PBS, 2% FBS)”, “C.” for “C. This step was performed in absence and presence of 10 μM Human Serum Albumine (CSL Behring #150570).”, “PBS” for “PBS, 2% FBS”, “LIVE/DEAD fixable” for “LIVE/DEAD”, “Thermo Fisher #L34957). This step was performed in absence and presence of […] Human Serum Albumin (CSL Behring #150570).” for “Biolegend #423106).”, “Solution,” for “Solution, TCL119,”

[6] = molecular target: T1, Human DLL3 expressed on cells …; test: flow cytometry titration on HEK293T-hDLL3 cells, without HSA
Description: as §4
as §2, with “diluted)” for “diluted in PBS, 2% FBS)”, “C.” for “C. This step was performed in absence and presence of 10 μM Human Serum Albumine (CSL Behring #150570).”, “PBS” for “PBS, 2% FBS”, “LIVE/DEAD fixable” for “LIVE/DEAD”, “Thermo Fisher #L34957). This step was performed in absence and presence of […] Human Serum Albumin (CSL Behring #150570).” for “Biolegend #423106).”, “Solution,” for “Solution, TCL119,”

[7] = molecular target: T1, Human DLL3 expressed on cells …; test: flow cytometry titration on NCI-H82 cells (endogenous DLL3), without HSA
Description: as §1, §2

[8] = molecular target: T2, hDLL3 ECD-Avi-Fckih (biotinylated …); test: SPR (ProteOn), biotinylated hDLL3 ECD-Avi-Fckih on chip, DARPin as analyte, 1:1 Langmuir fit
Description: Kinetic binding parameters and binding affinities of two domain (2D) ankyrin repeat proteins comprising an ankyrin repeat domain with binding specificity for DLL3 and an ankyrin repeat domain with binding specificity for serum albumin were determined by surface plasmon resonance (SPR) multi-trace analysis.
In brief, a SPR assay was used to determine the binding kinetics to the target human DLL3. The data were generated using BioRad ProteOn instrument in SPR running buffer (PBS, pH 7.4 containing 0.005% Tween 20®). […] The chip was coated with biotinylated target (bio-DLL3) to reach a signal intensity of 1780 RU. […] Each injection was followed by a regeneration step with 16 mM H₃PO₄ for 18 s. […] The bio-DLL3 target used was as described in U.S. 63/550,951, i.e. the extracellular domain (ECD) of human DLL3 protein (Q9NYJ7, Gene ID: 10683, residues 27 to 466; purchased from Evitria) linked via an Avi-tag (for site-directed biotinylation), followed by a 3C protease recognition site, to a Fc knob into hole (hDLL3 ECD-Avi-Fcₖᵢₕ).

[9] = molecular target: T4, mouse serum albumin (mouse, UniProt P07724 25-608); test: SPR (Bruker Sierra SPR-32), MSA on chip, DARPin as analyte, 1:1 Langmuir fit
T4 construct: also called MSA
T4 sequence (P07724 25-608 limits assumed): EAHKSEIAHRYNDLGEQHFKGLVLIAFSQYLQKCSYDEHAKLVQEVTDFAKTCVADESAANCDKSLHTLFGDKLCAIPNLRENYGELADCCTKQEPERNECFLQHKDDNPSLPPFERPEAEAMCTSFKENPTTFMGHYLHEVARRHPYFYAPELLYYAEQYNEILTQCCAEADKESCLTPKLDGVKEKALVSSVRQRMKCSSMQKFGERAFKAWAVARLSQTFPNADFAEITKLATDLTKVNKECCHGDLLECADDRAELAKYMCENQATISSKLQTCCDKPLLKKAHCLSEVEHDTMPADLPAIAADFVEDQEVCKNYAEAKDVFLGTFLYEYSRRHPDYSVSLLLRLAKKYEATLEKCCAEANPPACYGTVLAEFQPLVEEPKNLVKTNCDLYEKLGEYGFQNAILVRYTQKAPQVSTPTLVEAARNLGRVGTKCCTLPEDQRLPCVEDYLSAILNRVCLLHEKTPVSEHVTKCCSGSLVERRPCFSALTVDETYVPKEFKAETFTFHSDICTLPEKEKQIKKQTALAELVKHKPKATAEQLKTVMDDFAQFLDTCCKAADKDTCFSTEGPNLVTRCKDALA
Description: as §3

[10] = molecular target: human serum albumin (Homo sapiens, UniProt P02768)
[11] = molecular target: T5, mouse serum albumin (Mus musculus, UniProt P07724); test: SPR binding of 2D DARPins with different HSA binders to mouse serum albumin (Example 3); conditions: immobilized MSA, Cysteine capped with IAM, 1:1 Langmuir, Table 12
T5 construct: purchased Sigma-Aldrich
T5 sequence (P07724 25-608): as the sequence (P07724 25-608 limits assumed) above

EC50 [1] | EC50 [2] | EC50 [3] | Kd [4] | koff [4] | kon [4] | EC50 [5] | EC50 [6] | EC50 [7] | Kd [8] | koff [8] | kon [8] | Kd [9] | koff [9] | kon [9] | fold higher binding affinity to HSA than the Low HSA affinity 2D DARPin ([10]; SPR KD comparison) | Molecule | Koff HSA [10] | Kon HSA [10] | Koff MSA [11] | Kon MSA [11]
0.1 nM | 0.3 nM | – | – | – | – | – | – | – | – | – | – | – | – | – | – | Rova antibody | – | – | – | –
– | – | 8.1 nM | 103 nM | 0.00924 s⁻¹ | 89500 M⁻¹ s⁻¹ | 18.4 nM | 22.1 nM | 5.4 nM | 0.953 nM | 1.79e-05 s⁻¹ | 18800 M⁻¹ s⁻¹ | 507 nM | 0.0378 s⁻¹ | 74700 M⁻¹ s⁻¹ | – | MAM283 (two domain ankyrin repeat protein, N-terminal His6-TEV tag) (designed binder, also called 2D DARPin) MRGSHHHHHHENLYFQDLGKKLLEAARAGQDDEVRELLKAGADVNAKDYFSHTPLHLAARNGHLKIVEVLLKAGADVNAKDFAGKTPLHLAADAGHLEIVEVLLKAGADVNAQDIFGKTPADIAADAGHEDIAEVLQKAAGSPTPTPTTPTPTPTTPTPTPTGSDLGKKLLAAAADGQDDEVRELLQAGADVNAKDLFGYTPLHLAAWRGHLEIVEVLLEAGADVNAKDAAGETPLHLAAWFGHLEIVEVLLEAGADVNAQDVQGKTPADLAAKEGHEDIAEVLQQAA | – | – | – | –
– | – | 2.1 nM | 75 nM | 0.00923 s⁻¹ | 123000 M⁻¹ s⁻¹ | 16.3 nM | 14.9 nM | 2.5 nM | 0.616 nM | 1.44e-05 s⁻¹ | 23300 M⁻¹ s⁻¹ | 367 nM | 0.0335 s⁻¹ | 91200 M⁻¹ s⁻¹ | – | MAM279 (two domain ankyrin repeat protein, N-terminal His6-TEV tag) (designed binder, Cleavage of the tag is not reported; also called 2D DARPin) MRGSHHHHHHENLYFQDLGKKLLEAARAGQDDEVRELLKAGADVNAKDYFSHTPLHLAARNGHLKIVEVLLKAGADVNAKDFAGKTPLHLAADAGHLEIVEVLLKAGADVNAQDIFGKTPADIAADAGHEDIAEVLQKAAGSPTPTPTTPTPTPTTPTPTPTGSDLGKKLLAAAAQGQDDEVRELLKAGANVNAKDLFGYTPLHLAAWRGHLEIVEVLLKAGADVNAKDAAGETPLHLAAWFGHLEIVEVLLKAGADVNAQDLQGKTPADLAAKEGHEDIAEVLQKAA | – | – | – | –
– | – | 2.6 nM | 74.3 nM | 0.00889 s⁻¹ | 120000 M⁻¹ s⁻¹ | 19.6 nM | 21.2 nM | 2.6 nM | 3.03 nM | 3.79e-05 s⁻¹ | 12500 M⁻¹ s⁻¹ | 335 nM | 0.0354 s⁻¹ | 106000 M⁻¹ s⁻¹ | – | MAM282 (two domain ankyrin repeat protein, N-terminal His6-TEV tag) (designed binder, also called 2D DARPin) MRGSHHHHHHENLYFQDLGKKLLEAARAGQDDEVRELLKAGADVNAKDYFSHTPLHLAARNGHLKIVEVLLKAGADVNAKDFAGKTPLHLAADAGHLEIVEVLLKAGADVNAQDIFGKTPADIAADAGHEDIAEVLQKAAGSPTPTPTTPTPTPTTPTPTPTGSDLGKKLLAAAREGQDDEVRELLKAGADVNAKDIWGQTPLHIAAWFGHLEIVEVLLKAGADVNAKDQTGHTPLHLAAKFGHLEIVEVLLKAGADVNAQDLLGRTPADLAAEEGHEDIAEVLQKAA | – | – | – | –
– | – | – | – | – | – | – | – | – | – | – | – | – | – | – | about 10 fold | High HSA affinity 2D DARPin: MAM160 with a GS at the N-terminus and a Cysteine-containing tag at the C-terminus (protein, Ankyrin repeat protein with tag (GS-MAM160-tag)) GSDLGKKLLEAARAGQDDEVRELLKAGADVNAKDYFSHTPLHLAARNGHLKIVEVLLKAGADVNAKDFAGKTPLHLAADAGHLEIVEVLLKAGADVNAQDIFGKTPADIAADAGHEDIAEVLQKAAGSPTPTPTTPTPTPTTPTPTPTGSDLGTKLLSAAADGQDDEVRELLQAGADVNAKDLFGYTPLHLAAWRGHLEIVEVLLEAGADVNAKDAAGLTPLHLAAWFGHLEIVEVLLEAGADVNAQDVQGVTPADLAAKEGHEDIAEVLQQAAGSGSC | 0.0311 s⁻¹ | 105000 M⁻¹ s⁻¹ | 0.0345 s⁻¹ | 133000 M⁻¹ s⁻¹
